Measured values: US9200265B2, “Anti-cocaine compositions and treatment” (priority 2006, dated 2015)
Several values for one entry are separate records, joined by “and”; a condition that tells them apart may be missing. Identical values can stand only once. Like-named read-outs stand apart in the source and are kept apart here.

Key:
[1] = biological target: T1, CocE (Rhodococcus sp., UniProt Q9L9D7); test: Stabilization against 37° C.-induced formation of high molecular weight CocE aggregates (gel); assay type: physicochemical, Rhodococcus sp. MB 1; conditions: for 37° C.-induced formation of high molecular weight CocE aggregates: 0.1 mg/ml enzyme, mM range
T1 construct: generating a full-length CocE gene encoding the T172R mutation; His6 (C); made in house; host or cells: E. coli (pET-22b(+))
Protocol: Plasmids containing the mutations were transformed into E. coli BL21 cells and IPTG-induced enzyme was purified on Ni-Agarose. Expressed proteins were then tested for enzymatic activity and for thermostability at 37° C. Enzyme activity was measured using the spectrophotometric assay as described in Example 1. Thermostability was also tested via the spectrophotometric assay by pre-incubation of both wild-type and mutants at 37° C. for various times. Additionally, the nature of the thermo-instability of both the wild-type and T172R mutant was analyzed by polyacrylamide gel electrophoresis under denaturing and non-denaturing conditions. Briefly, mutant and wild-type enzyme at 0.1 mg/ml were incubated at 37° C. for various time-points, cooled to 4° C., mixed with SDS-loading dye containing-mercaptoethanol and run on 10% SDS-PAGE gels (denaturing conditions) or run on native 10% polyacrylamide gels (non-denaturing conditions) at 4° C. Gels were fixed with 10% methanol, 7% acetic acid for 30 minutes, and then stained with Sypro-Ruby protein gel stain (Molecular Probes, Invitrogen) for 3 hours. Protein staining was visualized under UV-light using an AlphaImager™ 3400 (Alpha Innotech). Finally, the exact melting temperature of both the wild-type and T172R mutant were determined by circular dichroism using a JASCO-810 spectropolarimeter driven by a JASCO V500/FP-750 analysis program for Windows. The CD spectra were measured in millidegrees and normalized against PBS buffer.
Cocaine esterase (CocE) cleaves cocaine to produce Benzoic acid and Ecgonine methyl ester. Briefly, alternative substrates and inhibitors of cocaine, as well as compounds able to thermostabilize the enzyme, were investigated generally by substituting amide and thiol analogues at the reactive ester bond, or removing the bond (for inhibitors), substituting benzoyl analogues in place of the benzoic acid leaving group, and/or removing or altering the methyl-ester group on the ecgonine portion of the molecule. As discussed below, it was determined that some substrates, products, and inhibitors stabilized thermal denaturation of wild type CocE, as well as prevented thermally-induced aggregation in gel electrophoresis.
Cocaine is the natural substrate of Cocaine esterase (CocE). Cocaine cleavage was monitored by a drop in absorbance at 240 nm. Cocaine (mM range) prevented 37° C.-induced formation of high molecular weight CocE aggregates (0.1 mg/ml enzyme concentrations) (see, e.g., FIG. 33). Cocaine (uM quantities) stabilized 37° C.-induced activity loss (see, e.g., FIG. 34), although the mechanism of this stabilization is complicated due to substrate inhibition at higher concentrations.

[2] = system: WIN 35065-2 induced toxicity; test: WIN 35065-2 induced lethality in rats; conditions: i.p., rats
[3] = biological target: T1, CocE; test: Inhibition of CocE (cleavage of 4-nitrophenyl acetate); assay type: biochemical, Rhodococcus sp. MB 1
Protocol: Benzoic acid prevented 37° C.-induced formation of high molecular weight CocE aggregates (0.1 mg/ml enzyme concentrations) (see, e.g., FIG. 35). Benzoic acid (uM quantities) stabilized 37° C.-induced activity loss (see, e.g., FIG. 36), although the mechanism of this stabilization is complicated due to substrate inhibition at higher concentrations.
CocE catalyzes the cleavage of 4-nitrophenyl acetate (4NPA) to 4-nitrophenol (4NP) and acetate. The cleavage reaction was monitored by observation of product formation at 400 nm. Both 4NP and 4NPA (mM range) prevented 37° C.-induced formation of high molecular weight CocE aggregates (0.1 mg/ml enzyme concentrations).

[4] = Low-UV CD spectra melt with CCA deconvolution; assay type: physicochemical; conditions: for #3 formation: accumulation of the fully melted protein; for #2 formation: formation of the intermediate state; for #1 melt: initial spectra melts, 0.2 mg/ml; for #2 melt: melt of the intermediate state
Protocol: Low-UV CD spectra data were obtained using an Aviv Spectropolarimeter Mode 400, with the help of Norma Greenfield, UMDNJ, using a 5-cell holder and 0.2 mg/ml protein concentrations. Raw data values obtained were blanked on control PBS, smoothed, and deconvoluted using the CCA algorithm as described by A. Perczel, K. Park, and G. D. Fasman, [Analysis of the circular dichroism spectrum of proteins using the convex constraint algorithm: a practical guide. Analytical Biochemistry 203, 83-93 (1992).] This algorithm finds the minimum number of curves needed to reconstruct a data set, and expresses the percentage each curve contributes to the data set as a function of temperature.
Below is presented a low UV CCA denconvolution analysis of CocE WT and 4 mutants, obtained in a single CD spectra melt using a 5-cell holder. The experiment was performed over the period of 8 hours, from 0-80° C.
Temperature dependent melting was observed between the wavelengths tested (200-250 nm), and the smoothed spectra for each mutant are shown in FIG. 29. […] Dose response analysis was used to approximate the temperature at which the initial spectra melts (1), the formation and melt of the intermediate state (2), and the accumulation of the fully melted protein (3).

[5] = Cocaine spectrophotometric assay (240 nm), Michaelis-Menten kinetics
[6] = against (-) cocaine; cited from earlier work

Row | Molecule | #3 formation [4] | #2 formation [4] [°C] | #1 melt [4] | #2 melt [4] | other results
1 | O=[N+]([O-])c1ccc(O)cc1 [4NP, 4-nitrophenol] | – | – | – | – | 37° C.-induced formation of high molecular weight CocE aggregates [1]: prevented
2 | CC(=O)Oc1ccc([N+](=O)[O-])cc1 [4NPA, 4-nitrophenyl acetate] | – | – | – | – | 37° C.-induced formation of high molecular weight CocE aggregates [1]: prevented
3 | COC(=O)[C@H]1[C@@H](c2ccccc2)C[C@@H]2CC[C@H]1N2C [WIN-35065-2, reference compound] | – | – | – | – | LD100 [2]: 560 mg/kg
4 | OB(O)c1ccccc1 [Phenylboronic acid] | – | – | – | – | Ki [3]: 250 nM; EC50 [1]: 200 nM
5 | T172R/G173Q (protein, UniProt Q9L9D7 1-574, looked up, variant T172R G173Q) Cocaine esterase: MVDGNYSVASNVMVPMRDGVRLAVDLYRPDADGPVPVLLVRNPYDKFDVFAWSTQSTNWLEFVRDGYAVVIQDTRGLFASEGEFVPHVDDEADAEDTLSWILEQAWCDGNVGMFGVSYLGVTQWQAAVSGVGGLKAIAPSMASADLYRAPWYGPGGALSVEALLGWSALIGRQLITSRSDARPEDAADFVQLAAILNDVAGAASVTPLAEQPLLGRLIPWVIDQVVDHPDNDESWQSISLFERLGGLATPALITAGWYDGFVGESLRTFVAVKDNADARLVVGPWSHSNLTGRNADRKFGIAATYPIQEATTMHKAFFDRHLRGETDALAGVPKVRLFVMGIDEWRDETDWPLPDTAYTPFYLGGSGAANTSTGGGTLSTSISGTESADTYLYDPADPVPSLGGTLLFHNGDNGPADQRPIHDRDDVLCYSTEVLTDPVEVTGTVSARLFVSSSAVDTDFTAKLVDVFPDGRAIALCDGIVRMRYRETLVNPTLIEAGEIYEVAIDMLATSNVFLPGHRIMVQVSSSNFPKYDRNSNTGGVIAREQLEEMCTAVNRIHRGPEHPSHIVLPIIKR | 56 °C and 56.61 °C | 45.61 | 40 °C and 40.62 °C | 46 °C and 46.17 °C | –
6 | T172R-F189K (protein, UniProt Q9L9D7 1-574, looked up, variant T172R F189K) Cocaine esterase: MVDGNYSVASNVMVPMRDGVRLAVDLYRPDADGPVPVLLVRNPYDKFDVFAWSTQSTNWLEFVRDGYAVVIQDTRGLFASEGEFVPHVDDEADAEDTLSWILEQAWCDGNVGMFGVSYLGVTQWQAAVSGVGGLKAIAPSMASADLYRAPWYGPGGALSVEALLGWSALIGRGLITSRSDARPEDAADKVQLAAILNDVAGAASVTPLAEQPLLGRLIPWVIDQVVDHPDNDESWQSISLFERLGGLATPALITAGWYDGFVGESLRTFVAVKDNADARLVVGPWSHSNLTGRNADRKFGIAATYPIQEATTMHKAFFDRHLRGETDALAGVPKVRLFVMGIDEWRDETDWPLPDTAYTPFYLGGSGAANTSTGGGTLSTSISGTESADTYLYDPADPVPSLGGTLLFHNGDNGPADQRPIHDRDDVLCYSTEVLTDPVEVTGTVSARLFVSSSAVDTDFTAKLVDVFPDGRAIALCDGIVRMRYRETLVNPTLIEAGEIYEVAIDMLATSNVFLPGHRIMVQVSSSNFPKYDRNSNTGGVIAREQLEEMCTAVNRIHRGPEHPSHIVLPIIKR | 57.23 °C | 46.81 | 38.8 °C | 48.42 °C | –
7 | S159A (protein, Mutant CocE polypeptide) MVDGNYSVASNVMVPMRDGVRLAVDLYRPDADGPVPVLLVRNPYDKFDVFAWSTQSTNWLEFVRDGYAVVIQDTRGLFASEGEFVPHVDDEADAEDTLSWILEQAWCDGNVGMFGVSYLGVTQWQAAVSGVGGLKAIAPSMASADLYRAPWYGPGGALAVEALLGWSALIGTGLITSRSDARPEDAADFVQLAAILNDVAGAASVTPLAEQPLLGRLIPWVIDQVVDHPDNDESWQSISLFERLGGLATPALITAGWYDGFVGESLRTFVAVKDNADARLVVGPWSHSNLTGRNADRKFGIAATYPIQEATTMHKAFFDRHLRGETDALAGVPKVRLFVMGIDEWRDETDWPLPDTAYTPFYLGGSGAANTSTGGGTLSTSISGTESADTYLYDPADPVPSLGGTLLFHNGDNGPADQRPIHDRDDVLCYSTEVLTDPVEVTGTVSARLFVSSSAVDTDFTAKLVDVFPDGRAIALCDGIVRMRYRETLVNPTLIEAGEIYEVAIDMLATSNVFLPGHRIMVQVSSSNFPKYDRNSNTGGVIAREQLEEMCTAVNRIHRGPEHPSHIVLPIIKR | – | – | – | – | Km ([5]; 40 min @ 37° C.): 15.7 µM; Km ([5]; no preincubation): 43.6 µM
8 | T172R/A193D: mutant CocE polypeptide (protein, UniProt Q9L9D7 1-574, looked up, variant T172R A193D) Cocaine esterase: MVDGNYSVASNVMVPMRDGVRLAVDLYRPDADGPVPVLLVRNPYDKFDVFAWSTQSTNWLEFVRDGYAVVIQDTRGLFASEGEFVPHVDDEADAEDTLSWILEQAWCDGNVGMFGVSYLGVTQWQAAVSGVGGLKAIAPSMASADLYRAPWYGPGGALSVEALLGWSALIGRGLITSRSDARPEDAADFVQLDAILNDVAGAASVTPLAEQPLLGRLIPWVIDQVVDHPDNDESWQSISLFERLGGLATPALITAGWYDGFVGESLRTFVAVKDNADARLVVGPWSHSNLTGRNADRKFGIAATYPIQEATTMHKAFFDRHLRGETDALAGVPKVRLFVMGIDEWRDETDWPLPDTAYTPFYLGGSGAANTSTGGGTLSTSISGTESADTYLYDPADPVPSLGGTLLFHNGDNGPADQRPIHDRDDVLCYSTEVLTDPVEVTGTVSARLFVSSSAVDTDFTAKLVDVFPDGRAIALCDGIVRMRYRETLVNPTLIEAGEIYEVAIDMLATSNVFLPGHRIMVQVSSSNFPKYDRNSNTGGVIAREQLEEMCTAVNRIHRGPEHPSHIVLPIIKR | 58.72 °C | 46.47 | 38.11 °C | 47.68 °C | –
9 | Ala328W/Y332A: cocaine hydrolyzing enzyme of Sun et al., 2002a (genetically engineered BChE) (protein, UniProt P06276 29-602, looked up, variant A328W Y332A) Cholinesterase: EDDIIIATKNGKVRGMNLTVFGGTVTAFLGIPYAQPPLGRLRFKKPQSLTKWSDIWNATKYANSCCQNIDQSFPGFHGSEMWNPNTDLSEDCLYLNVWIPAPKPKNATVLIWIYGGGFQTGTSSLHVYDGKFLARVERVIVVSMNYRVGALGFLALPGNPEAPGNMGLFDQQLALQWVQKNIAAFGGNPKSVTLFGESAGAASVSLHLLSPGSHSLFTRAILQSGSFNAPWAVTSLYEARNRTLNLAKLTGCSRENETEIIKCLRNKDPQEILLNEAFVVPYGTPLSVNFGPTVDGDFLTDMPDILLELGQFKKTQILVGVNKDEGTWFLVAGAPGFSKDNNSIITRKEFQEGLKIFFPGVSEFGKESILFHYTDWVDDQRPENYREALGDVVGDYNFICPALEFTKKFSEWGNNAFFYYFEHRSSKLPWPEWMGVMHGYEIEFVFGLPLERRDNYTKAEEILSRSIVKRWANFAKYGNPNETQNNSTSWPVFKSTEQKYLTLNTESTRIMTKLRAQQCRFWTSFFPKVLEMTGNIDEAEWEWKAGFHRWNNYMMDWKNQFNDYTSKKESCVGL | – | – | – | – | Kcat [6]: 154 min⁻¹; Km [6]: 18 µM
